# Results published in patent US20180171001A1.
# Where a chain is given by its changes, count along the chain named.
# B1: γ4κ3 (antibody, V domains shown)
# VH: QIHLVQSGTEVKKPGSSVTVSCKAYGVNTFGLYAVNWVRQAPGQSLEYIGQIWRWKSSASHHFRGRVIISAVDLTGSSPPISPLEIKNLTSDDTAVYFCTTTSTSDRWSGLHHDGVMAFSSWGQGTLISVSA
# VL: DIQMTQSPSTLSASIGDTVRISCRASQSITGNWLAWYHQRPGKAPRLLIYRGSRLLGGVPSRFSGSAAGTDFTLTIANLQAEDFGTFYCQQYDTYPGTFGQGTKVEVKR
# B2: γ8κ3 (antibody, V domains shown)
# VH: B1 VH with E10G, S45G, I68L, S82T, P83S, L89V, S105Y, R107K, H112Y
# VL: B1 VL
# B3: γ15κ3 (antibody, V domains shown)
# VH: B1 VH with P83S, T102A, S105Y, R107K
# VL: B1 VL
# B4: γ20κ3 (antibody, V domains shown)
# VH: B1 VH with T19A, H62D, P83S, T101A, S105P, R107Y
# VL: B1 VL
# B5: γ22κ3 (antibody, V domains shown)
# VH: B1 VH with I68L, S77P, P83S, S105Y, R107K
# VL: B1 VL
# B6: γ52κ3 (antibody, V domains shown)
# VH: B1 VH with I68L, P83S, S105Y
# VL: B1 VL
# B7: γ59κ3 (antibody, V domains shown)
# VH: B1 VH with S45G, I68L, P83S, L89V, S105Y, R107E, G110D
# VL: B1 VL
# B8: γ3κ3 (antibody, V domains shown)
# VH: QIHLVQSGTEVKKPGSSVTVSCKAYGVNTFGLYAVSWVRQAPGQRLEYIGQIRRWKSSASHHFRGRVTVSAVDPTGSSPPISSLEIRDLTTDDTAVYFCTTTSTSDYWSGLHNERGTAFSSWGQGTLISVSA
# VL: B1 VL
# B9: 8ANC3040 (antibody, V domains shown)
# VH: B1 VH with I68L, P83S, S105Y, R107Q
# VL: B1 VL with L34V, H38Q, S53A, R54A, A77G
# B10: 8ANC3484 (antibody, V domains shown)
# VH: B1 VH with I68L, P83S, S105Y
# VL: B1 VL with L34V, H38Q, S53A, R54A, S64R, A77G
# B11: γ46κ5 (antibody, V domains shown)
# VH: B1 VH with S45G, I68L, P83S, L89V, S105Y, R107K, M117V
# VL: B1 VL with I15T, L34V, H38Q, S53A, R54A, S64R, A77G
# B12: γ8κ11 (antibody, V domains shown)
# VH: B1 VH with E10G, S45G, I68L, S82T, P83S, L89V, S105Y, R107K, H112Y
# VL: B1 VL with I15V, D17G, N32G
# B13: γ15κ18 (antibody, V domains shown)
# VH: B1 VH with P83S, T102A, S105Y, R107K
# VL: B1 VL with I15V, N32G, T70A
# Target: Env of HIV-1 strain 3016.v5.c45 (HIV-1)
# Test: cell-based or functional assay
row,Binder,neutralization IC50 [µg/mL]
1,B1,> 15
2,B2,2.38
3,B3,1.26
4,B4,> 15
5,B5,> 15
6,B6,3.05
7,B7,> 15
8,B8,0.347
9,B9,0.427
10,B10,0.131
11,B11,0.111
12,B12,2.46
13,B13,0.664

# Target: Env of HIV-1 strain H086.8 (HIV-1)
# Test: cell-based or functional assay
row,Binder,neutralization IC50 [µg/mL]
1,B1,> 15
2,B2,> 15
3,B3,> 15
4,B4,> 15
5,B5,> 15
6,B6,> 15
7,B7,> 15
8,B8,3.31
9,B10,0.394
10,B11,1.75
11,B12,> 15
12,B13,> 15

# Target: Env of HIV-1 strain 250-4 (HIV-1)
# Test: cell-based or functional assay
row,Binder,neutralization IC50 [µg/mL]
1,B1,> 15
2,B2,> 15
3,B3,> 15
4,B4,> 15
5,B5,> 15
6,B6,> 15
7,B7,> 15
8,B8,> 15
9,B10,> 30
10,B11,> 15
11,B12,> 15
12,B13,> 15

# Target: Env of HIV-1 strain Du172.17 (HIV-1)
# Test: cell-based or functional assay
row,Binder,neutralization IC50 [µg/mL]
1,B1,> 15
2,B2,> 15
3,B3,> 15
4,B4,> 15
5,B5,> 15
6,B6,> 15
7,B7,> 15
8,B8,> 15
9,B10,4.01
10,B11,> 15
11,B12,> 15
12,B13,> 15

# Target: Env of HIV-1 strain X1254_c3 (HIV-1)
# Test: cell-based or functional assay
row,Binder,neutralization IC50 [µg/mL]
1,B1,18
2,B2,4.01
3,B3,3.49
4,B4,14.7
5,B5,> 15
6,B6,> 15
7,B7,3.39
8,B8,1.82
9,B9,2.91
10,B10,2.19
11,B11,1.79
12,B12,4.14
13,B13,2.85

# Target: Env of HIV-1 strain 3415.v1.c1 (HIV-1)
# Test: cell-based or functional assay
row,Binder,neutralization IC50 [µg/mL]
1,B1,> 15
2,B2,> 15
3,B3,> 15
4,B4,> 15
5,B5,> 15
6,B6,> 15
7,B7,> 15
8,B8,> 15
9,B9,3.06
10,B10,0.589
11,B11,> 15
12,B12,> 15
13,B13,> 15

# Target: Env of HIV-1 strain R1166.c1 (HIV-1)
# Test: cell-based or functional assay
row,Binder,neutralization IC50 [µg/mL]
1,B1,> 15
2,B2,7.6
3,B3,3.94
4,B4,> 15
5,B5,> 15
6,B6,23.4
7,B7,24.2
8,B8,2.2
9,B9,2.37
10,B10,1.03
11,B11,0.922
12,B12,3.88
13,B13,1.99

# Target: Env of HIV-1 strain ZM109F.PB4 (HIV-1)
# Test: cell-based or functional assay
row,Binder,neutralization IC50 [µg/mL]
1,B1,> 15
2,B2,> 15
3,B3,> 15
4,B4,> 15
5,B5,> 15
6,B6,> 15
7,B7,> 15
8,B8,> 15
9,B10,> 30
10,B11,> 15
11,B12,> 15
12,B13,> 15

# Target: Env of HIV-1 strain 231965.c1 (HIV-1)
# Test: cell-based or functional assay
row,Binder,neutralization IC50 [µg/mL]
1,B1,> 15
2,B2,3.48
3,B3,1.61
4,B4,> 15
5,B5,> 15
6,B6,6.59
7,B7,> 15
8,B8,0.727
9,B9,1.17
10,B10,0.294
11,B11,0.525
12,B12,2.49
13,B13,1.49

# Target: Env of HIV-1 strain ZM53M.PB12 (HIV-1)
# Test: cell-based or functional assay
row,Binder,neutralization IC50 [µg/mL]
1,B1,> 15
2,B2,> 15
3,B3,> 15
4,B4,> 15
5,B5,> 15
6,B6,> 15
7,B7,> 15
8,B8,> 15
9,B9,14.9
10,B10,11.6
11,B11,12.4
12,B12,> 15
13,B13,> 15

# Target: Env of MuLV
# Test: cell-based or functional assay
row,Binder,neutralization IC50 [µg/mL]
1,B2,> 18
2,B3,> 30
3,B4,> 21
4,B6,> 30
5,B7,> 30
6,B8,> 30
7,B9,> 30
8,B10,> 30

# Target: Env of HIV-1 strain 251-18 (HIV-1)
# Test: cell-based or functional assay
row,Binder,neutralization IC50 [µg/mL]
1,B1,> 15
2,B2,> 15
3,B3,> 15
4,B4,> 15
5,B5,> 15
6,B6,14.5
7,B7,> 15
8,B8,> 15
9,B9,0.571
10,B10,0.391
11,B11,0.609
12,B12,> 15
13,B13,> 15

# Target: Env of HIV-1 strain PVO.4 (HIV-1)
# Test: cell-based or functional assay
row,Binder,neutralization IC50 [µg/mL]
1,B1,> 15
2,B2,> 15
3,B3,5.32
4,B4,> 15
5,B5,> 15
6,B6,1.92
7,B7,> 15
8,B8,0.17
9,B9,0.284
10,B10,0.077
11,B11,0.129
12,B12,8.16
13,B13,1.59

# Target: Env of HIV-1 strain 3365.v2.c20 (HIV-1)
# Test: cell-based or functional assay
row,Binder,neutralization IC50 [µg/mL]
1,B1,> 15
2,B2,> 15
3,B3,> 15
4,B4,> 15
5,B5,> 15
6,B6,> 15
7,B7,> 15
8,B8,> 15
9,B9,> 25
10,B10,> 30
11,B11,> 15
12,B12,> 15
13,B13,> 15

# Target: Env of HIV-1 strain REJO4541.67 (HIV-1)
# Test: cell-based or functional assay
row,Binder,neutralization IC50 [µg/mL]
1,B1,> 15
2,B2,> 15
3,B3,> 15
4,B4,> 15
5,B5,> 15
6,B6,> 15
7,B7,8.54
8,B8,0.26
9,B9,0.198
10,B10,0.117
11,B11,0.196
12,B12,> 15
13,B13,> 15

# Target: Env of HIV-1 strain YU2.DG (HIV-1)
# Test: cell-based or functional assay
row,Binder,neutralization IC50 [µg/mL]
1,B1,> 15
2,B2,5.41
3,B3,1.07
4,B4,> 15
5,B5,> 15
6,B6,5.75
7,B7,8.97
8,B8,0.42
9,B9,0.617
10,B10,0.461
11,B11,0.553
12,B12,9.35
13,B13,1.17
